“Also recorded” adds a separate entry of the source. No end group written: not given here.
Experiments:
LGR5 = biological target: T1, LGR5 (Homo sapiens, UniProt O75473); test: cAMP accumulation in CHO-K1 cells transiently transfected with LGR5; type: cell-based; conditions: 1 uM, pre-treatment with Forskolin, FIG. 3B
T1 construct: expressed in transfected cells; host or cells: CHO-K1 (transient)
T1 sequence (O75473 22-907): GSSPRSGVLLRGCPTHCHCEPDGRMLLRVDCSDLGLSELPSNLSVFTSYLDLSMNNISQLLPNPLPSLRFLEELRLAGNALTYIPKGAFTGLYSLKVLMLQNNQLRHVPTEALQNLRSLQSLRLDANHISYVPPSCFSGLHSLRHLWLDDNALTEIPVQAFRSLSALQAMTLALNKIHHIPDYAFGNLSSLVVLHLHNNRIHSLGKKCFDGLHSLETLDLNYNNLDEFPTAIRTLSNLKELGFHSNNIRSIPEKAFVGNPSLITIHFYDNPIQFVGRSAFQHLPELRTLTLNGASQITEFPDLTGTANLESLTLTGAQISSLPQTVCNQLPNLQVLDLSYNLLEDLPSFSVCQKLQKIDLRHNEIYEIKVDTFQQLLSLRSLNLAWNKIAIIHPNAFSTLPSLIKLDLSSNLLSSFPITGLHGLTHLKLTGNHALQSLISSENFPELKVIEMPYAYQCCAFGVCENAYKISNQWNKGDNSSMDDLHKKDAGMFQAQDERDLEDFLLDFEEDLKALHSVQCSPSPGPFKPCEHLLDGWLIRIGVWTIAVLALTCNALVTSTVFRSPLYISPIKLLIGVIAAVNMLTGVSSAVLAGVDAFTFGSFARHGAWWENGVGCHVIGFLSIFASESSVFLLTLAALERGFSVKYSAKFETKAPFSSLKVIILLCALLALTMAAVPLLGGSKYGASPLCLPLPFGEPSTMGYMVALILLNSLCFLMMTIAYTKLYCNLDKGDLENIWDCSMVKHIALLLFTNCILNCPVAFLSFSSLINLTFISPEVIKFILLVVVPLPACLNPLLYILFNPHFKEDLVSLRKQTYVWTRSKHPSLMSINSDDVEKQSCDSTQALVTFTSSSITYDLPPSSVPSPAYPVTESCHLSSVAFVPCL
Experimental: [The procedure below names another target; the source says it served here with some conditions changed.] LGR7 (RXFP1) or LGR8 (RXFP2) were transiently transfected into CHO-K1 cells as follows: Cells (12 million) were plated into T75 flasks on the day preceding transfection. Cells were transfected with a GPCR DNA and Gα16 using a lipid technique according to the manufacturer's recommendation. Cells were transfected for 5 hours, then re-plated into 96-well dishes (60,000 cells per well) and grown overnight. Transfected cells were plated into 24 wells of a 96-well plate. Cells were pre-treated with 0.5 mM IBMX (stimulation buffer) for 10 min at 37° C., then stimulated with either a positive control (Relaxin 2) or a candidate peptide (for Gs functional examination), followed by stimulation or a preincubation with 10 μM forskolin (for Gi functional examination). Following a 20 minutes stimulation by incubation with 1 μM of either positive control or the tested peptides, either with or without forskolin, intracellular cAMP was assayed using the Hit Hunter cAMP kit (DiscoveRx Corporation) according to the manufacturer's recommended protocol. Data was converted to nmol of cAMP by running a standard cAMP curve.

LGR4 = biological target: T2, LGR4 (Homo sapiens, UniProt Q9BXB1); test: ACEA RT-CES cell impedance, LGR4 transfected CHO-K1 cells; type: cell-based; conditions: P74C13V 10 uM, H2 Relaxin 1 uM, FIG. 15
T2 construct: expressed in transfected cells; host or cells: CHO-K1 (transient)
Excerpt: ACEA RT-CES screen is a noninvasive and label-free assay for GPCRs that can be used with both engineered and nonengineered cell lines. The assay is based on using cell-electrode impedance to measure minute changes in cellular morphology as a result of ligand-dependent GPCR activation and is described in Naichen Yu, et al., Anal. Chem., 78 (1), 35-43, 2006. 10.1021/ac051695v S0003-2700(05)01695-1. The Rho family of small GTPases, which include Rho, Rac, and CDC42, are well-characterized effectors of oncogenes, growth factor and adhesion-mediated signaling pathways and are not classically thought of as being key effectors for GPCRs. […] Since GPCRs couple to the actin cytoskeletal network and induce very defined morphological changes, it is possible to harness this information as a functional and biologically relevant readout for GPCRs.
ACEA biosciences; has designed electronic cell sensor arrays embedded in the bottom of the well of microtiter plates that are capable of measuring minute changes in cell morphology. […] The main advantages offered by using cell-substrate impedance and cell morphology as a readout are that both exogenously expressed and endogenous receptors can be assayed without the need for engineering the cell with promiscuous G proteins and reporters or labeling the cells with dyes. […]

Row | Substance | Gi effect (decrease in cAMP accumulation) (LGR5) | effect on cell impedance (normalized cell index) (LGR4)
1 | GQKGQVGPPGAAVRRAYAAFSV [Peptide P59C13V] | significant Gi effect; also recorded: slight Gi activation | 
2 | GQKGQVGPPGAAVRRAYAAFSVGRRAYAAFSV-OH [Peptide P74C13V] | significant Gi effect; also recorded: slight Gi activation | moderate effect
3 | H2 Relaxin: H2 Relaxin (ACS), positive control, known ligand of LGR7 (RXFP1) [reference compound] |  | much stronger effect

Source: patent US8492329B2, “Bioactive peptides and methods of using same” (Compugen Ltd., priority 2007, dated 2013)
